This passage reports most probable rupture force fMP results from PMC6128213.

This assay concerns the target human fibronectin (human) (UniProt P02751). Put plainly: AFM single molecule force spectroscopy.

On to “pilus-1 adhesin RrgA from Streptococcus pneumoniae (natural protein)”, for which the most probable rupture force fMP was determined as 51.6 pN.
